The record followed here is the nanobody polyreactivity screen of Harvey et al. (2022).

A short description of the data set: yeast display, Sf9 membrane polyspecificity reagent, FACS + sequencing; frameworks hold sequencing errors. Summed up:
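Using colony PCR, genes from sorted yeast display clones were amplified, then sequenced on MiSeq at 2 × 250 and filtered by CDR length. The clones had been stained with 10% biotinylated, detergent-solubilized Sf9 membrane reagent for 1 hour at 4 °C and sorted by FACS into low and high (top ~1%) gates on anti-HA and streptavidin fluorescence. Polyreactivity labels come from the gate of origin.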
Regarding “QVQLVESGGGLVQAGGSLRLSCAASGRNFAGYAMLWYRQAPGKERELVATISSGGSTYYADSVKGRFTISRDNAKNTVYLQKNSLKPEDTAVYYCAAEYGTRQYSSYYKLFNYWGQGTQVTVSS”, the “polyreactivity (PSR sort gate)” value is listed as “low polyreactivity”.

Take “QVQLVESGGGLVHAGGSLRLSCAASGRIFYPYTMGWYRQAPGKERELVAAISIRGTSTYYADSVKGRFTISRDNAKNTVYLQMNSLKPEDTAVYYCAALYVGYDYWGQGTQVTVSS”: the “polyreactivity (PSR sort gate)” value was “high polyreactivity”. To “QVQLVESGGGLVQAGGSLRLSCAASGSTFRYNAMGWYRQAPGKEREFVAAITTSGVRTYYADSVKGRFTISRDNAKNTVYLQMTSLKPEDSAVYYCAARANYIFYGMDYWGQGTLVTVSS” belongs “high polyreactivity”; to “QVQLVESGGGLVHAGGSLRLSCAASGSTYYGNAMGWYIQAPRKERELVAAINRGGSTYYADSVKGRFTISRDNAKNTVYLQMKSLKPEDTAVYYCAADYEYLPKTRDGYYWGQGTQVTVSS”, “low polyreactivity”; to “QDQLVESGGGLVQAGGSLRLSCAASGFIFSSYAIGWYRQAPGKERELVAAITSGGSTNYADSVKGRFTLSRDNAKNTVYLQMNSLKPEDTAVYYCATVPGGSWFFHWWSTGGDDEYWGQGTQVTVSS”, “low polyreactivity”. Regarding “QVQLVESGGGLVQAGGSLRLSCAASGIISAGYAMGWYRQAPGKERELVAAISTSGTSTYYADSVKGRFTISRDNAKNTVYLQMNSLKPEDTAVYYCAYTYYYGVGYYYWGQGTQVTVSS”, the “polyreactivity (PSR sort gate)” value is “low polyreactivity”. As to “QVQLVESGGGLVQAGGSLRLSCAASGFIFVPYAMGWYRQAPGKEREFVAAIRCSGGRTYYADSVKGRFSISRDYAKNTVYLQMNSLKPDDTAVYYCAADTWQDRVRKTSFGYDYWGQGTQVTVSS”, the “polyreactivity (PSR sort gate)” value was “high polyreactivity”. To “QVQLVESGGGLVQAGGSLSLTCAASVLTLTGYPMGWYRPAPGKERELVAAISSRGGSTYYADSVKGRFTISRDNAKNTVYLQMNSLKREDTAFYYCDARASSGARGLDYWGQGTQVTVSS” belongs “high polyreactivity”; to “QVQLVESGGGLVQAGGSLRLSCAASGSTFTSYAMGWYRQAPGKEREFVAAISWSGGSTYYADSVKGRFTISRDNAKNTVYLQMNSLKPEDTAVYYCNAVLRSYYSPWYDYWGQATQVTVSS”, “high polyreactivity”. To “QVQLVESGGGLVQAGGSLRLSCAASGSILGLYAMGWYRQAPGKERELVAAITYRGGRTDYADSVKGRFTISRDNAKNTVYLQMNSLKPEDTAVYYCAAGYLPRPRYSTSYLYYYWGQGTQVTVSS” belongs “high polyreactivity”; to “QVQLVESGGGLVQAGGSLRLSCAASGRIFYFYAMGWYRQAPGKERELVAAISTSGGSTYYADSVKGRFTISRDNAKNTVYLQMNSLKPEDTAVYYCAARFRYYGSEYDYWGQGTQVTVAS”, “low polyreactivity”. “QVQLVESGGGLVQAGGSLRLSCAASGFTFYNNAMGWYRQAPGKERELVAAISRSGGSTHYADSVKGRFTISRDTAKNTVYLQMNSLKPEDNAVYYCAKVGVLGYYTYYYWGQVTQVTVSS”: the “polyreactivity (PSR sort gate)” value is given as “low polyreactivity”. Take “QVQLVESGGGLVQAGGSLRLSCAASGSIFTWYAMGWYRQAPGKERELVAAITTSGGSTYYADSVKGRFTISRDNAKNTVYLQMNSLKPEDTAVYYCAKDGDYLFYYYGYDYWGQGTQVTVSS”: the “polyreactivity (PSR sort gate)” value was “low polyreactivity”. As to “QFQLVESCGGLVQAGGSLRLSCAASGPIFKSNAMGCYRQAPGKERELVAAISGSGGRTYYAHSVKGRFTISRDNANNTVYLQMNSLKPEDTAVYYCNAGGSYYARGMDYWGQGTQVTVSS”, the “polyreactivity (PSR sort gate)” value is “high polyreactivity”. On to “QVQLVESGGGLVQAGGSLRLSCAASGSTFSSYAMGWYRPAPGKERELVAAITSSGGSTYYADSVKGRFTISRDNAKNTVYLQMNSLKPEDTAVYYCAAADVIFWLYYYWGQGTQVTVSS”, for which the “polyreactivity (PSR sort gate)” value is “low polyreactivity”.

In the case of “QVQLVESGGRLVQAGGSLRLSCAPSGFTFYRYAMGWYRQAPGKEREFVAAITWSGGSTYYADSVKGRFTISRDNSKNTVYLQMNSLKPEDTAVYYCAAYVGFDGTREYDYWGQGTQVTVSS”, the “polyreactivity (PSR sort gate)” value is recorded as “high polyreactivity”. The value for “QVQLVESGGGLVQAGGSLRLSCAASGSTFTHYAMGWYRQAPGKERELVAAITSSGGSTYYADSVKGRFTISRDNAKNTDYLQMNSLKPVDTAVYYCAARGSYRNRYRHDYWGQGTQVTVSS” was “high polyreactivity”. On to “QVQHVESGGGLVQAGGSLRLSCAASGRIFTTYAMGWYIQAPGKERELVAAISRSGGSTYYADSVKGRFTISRDNAKNTVYLQMNSLKPEDTAVYYCAAVPTSNSFRSSFYYWGQGTQVTVSS”, for which the “polyreactivity (PSR sort gate)” value is on record as “high polyreactivity”. To “QVQLVESGGGLVQAGGSLRLSCAASGRIFRGNVMGWYRQAPGTERELVAAISGSGGSTYYADSVKGRFTISRDNAKNTVYLQMNSLKPEDTAVYYCAAGTAKTPRRSVGYWGQGTQVTVSS” belongs “high polyreactivity”. For “QVQLVESGGGLVQAGGSLRLSCAASGSTFVDNAMGWYRQAPGKERELVAAITSSGGSTYYADSVKGRFTISRDNAQNTVYLQMNSLKPEDTAVYYCAADEWIVHDGYYSSYYYWGQGTQVTVSS”, the “polyreactivity (PSR sort gate)” value was “low polyreactivity”. To “QVQLVESGGGLVQAGGSLRLSCAASGRTFRVYAMGWYRQAPGKERELVATITSSGGSTYYADSVKGRLTISRDNAMNTVDLQMNSLKPEDTAGYYCNVSVYYKYVSSYYYWGQGTQVTVSS” belongs “low polyreactivity”; to “QVQLVASGGGLVQAGGSLRLSCAASGRTFYEYSIGWYRQAPGKERELDAGITSGGSTNYSDTVKGRFTISRDNATNPVFLLMNRLNPEDTAVYYCAAAYWGYEYDYWGQGTQVTLSS”, “low polyreactivity”. For “QVQLLESGGVLDQAGGSLRLTCAASGSIFFTNAMGWYRQAPGKERELVAAIRQSGGSTFYADSVKGRFTISRDNAKNTVYLQLNSLKPEDTAVFYCNADGRHKWQYSSYDYWGQGTQLTVSS”, the “polyreactivity (PSR sort gate)” value is given as “low polyreactivity”. With “QVQLVESGGGLVQAGGSLRLSCAASGRTLKYNAMGWYIQAPGKERELVAGISWSGTRTYYADSVKGRFTISRDIAKNTVYLQMNSLKPEETAVYYCAAYSYLYRSSGFRYNYWGQGTPVTVSS”, the “polyreactivity (PSR sort gate)” value is on record as “high polyreactivity”. To “QVQLVESGGGLVQAGGSLRLSCAASGRIFVRYAMGWYRQAPGKEREFVAAINYSGGSTYADSVKGRFTISRDNAKNSVFLQMIRLKPEDTAVYYCAADYQGITSSDPYDYWGQGTQVTVSS” belongs “low polyreactivity”.

Regarding “QVQLVESGGGLVQAGGSLRLSCAASGSTFSQYAMGWYRQAPGKERELVAAITRGGRTYYADSVKGRFTISRDNAKNTVYLQMNSLKPEDTAVYYCNAVLGLLYGYDYWGQGTQVTVSS”, the “polyreactivity (PSR sort gate)” value was “high polyreactivity”. To “QVLLQESGGLLQAGCSLRMSCAASGSISTALSMVWYRQAPGKERELVATISDGASTNYADSVKGRFTISRVNAKNTVYLQMNSLKPEDTEVYYCAAQSQYRPDHRYWGQGTQVTVSS” belongs “high polyreactivity”. To “QVQLVESGGGLVQAGGSLRLSCAASGRIIYSNGMGWYRQAPGKERELVAAISSGGSTYNADSVKGRFTISRDNAKNTVYLQMNSLKPEDTAVYYCAADIDYERDRYDYWGQGSQVTVSS” belongs “low polyreactivity”. To “QVQLVESGGGLVQAGGSLRLSCAASGIIFRHNAMGWYRQAPGKERELVAAISSGGNTYYADSVKGRFTISRDNAKNTVYLQMNSLKPEDTAVYYCAADVQDRYHRAWYDYWGQGTQVTVSS” belongs “low polyreactivity”; to “QVQLVESGGGLVQAGGSLRLSCAASGSTFYSYAMGWYRQAPGKERELVAAIDWSGTSTYYADSVKGRFTISRDNAKNTVYLQMNSLKPEDTAVYYCAARYTRGGSGPDYNYWGQGTQVTVSS”, “high polyreactivity”; to “QVQLVESGGGLVQAGGSLRLSCAASGRILLYKAMGWYRQAPGKERELVAAISRSGGSTYYADSVKGRFTISRDNAKNTVYLQMNSLKPEDTAVYYCAAQHGYPRYYFWGQGTQVTVSS”, “high polyreactivity”. For “QVQLVESGGGLVQAGGSLRLSCAASGYIFYPYTMGWYRPAPGKERELVAAITRSGSSTYYADSVKGRFTISRDNAKNTVYLQMNSLKPEDTAVYYCAAQRVNWYLSPSLYYYWGQGTQVTVSS”, the “polyreactivity (PSR sort gate)” value was “high polyreactivity”. Turning to “QVQLVESGGGLDQARGSLRLSCAASGRTFRYYAMGWYRQAPWKERELVAAISSRGTRTYYADSVKGRFTISRDNAKNTVYLQMNSLKPEDTAVYYCATRYYQELSYDYWGQGTQVIVSS”, the “polyreactivity (PSR sort gate)” value is recorded as “high polyreactivity”. The value for “QVQHVESGGGLVQAGGTLRLSCAASGSIFFWYGMGRYRQAPGKERELVAAITSGGISYYADSVKGRFTISRDNAKNTVYFQMNSLKPEDTAVYYCATRTYTYWGGSYPHYYWGQGSQVTVSS” was “high polyreactivity”. “QVQLVESGGGLVQAGGSLRLSCAASGFTFVVNAMGWYRQAPGKERELVATIRSNGGSTYYADSVKGRFTISRDNAKNTVYLQMNSLKPEDTAVYYCAATATDTKYGYWGQGTQVTVSS”: the “polyreactivity (PSR sort gate)” value is on record as “low polyreactivity”. On to “QVQLVESGGGLVQAGGSLRLSCAASGFIFSNAMGWYRQAPGKERELVAAISRSGGSTYYADSVKGRFTISRDNAKNTVYLQMNSLKPEDTAVYYCGARSYPRSPVRYDYWGQGTQVTVSS”, for which the “polyreactivity (PSR sort gate)” value is on record as “high polyreactivity”. Consider “QVQLVESGGGLVQAGGSLRLTCAASGSILYYAMGWYRQAPGKERELVAAITRSGTTTYYAASVKGRFTISRDNAKKTVYLQMNSLKPEDTAVYFWAARTSYDYDYWGQGTQVTVSS”, for which the “polyreactivity (PSR sort gate)” value was “high polyreactivity”.

Regarding “QVQLVESGGGLVQAGGSLRLSCAASGRTFIRNVMGWYRQAPGKERELVAAISTRGGSTYYADSVKGRFTISRDIAKNTVYLQMNSMKPEDTAVYYCASVIRCRYSYYEYDYWGQGTQETVSS”, the “polyreactivity (PSR sort gate)” value is reported as “high polyreactivity”. Consider “QDQLVESGGGLVQAGGSLRLSCAASGSIFAGNVMGWYRQAPGKERELVAAISRRGGRTYYADSVKGRFTISRDNAKNTVYLQMNSLKPEDTAVYYCAARRDPVLGKSDYWGQGTLVTVSS”, for which the “polyreactivity (PSR sort gate)” value was “high polyreactivity”. For “QVQLVESGGGIVQAGGSLRLSCAASGRIFYDHAMGWYRQAPGKERELVAAITSVRSTNYADSVKGRFTISRDNAKNTVNLQMNSLKPEDTAVYYCARASAWYGTLVGKYTKYDYWGQATQVTVSS”, the “polyreactivity (PSR sort gate)” value is “low polyreactivity”. For “QVQLVESGGGLVQAGGSLRLSCAASGRIFNPNAMGWYRQAPGKERELVAAITSGDSTNYADSVKGRFTISRDNAKNTVYLQMNSLKPEDTAVYYCAAGPSKRPPWLRQGGYDYWGQGTQVTVSS”, the “polyreactivity (PSR sort gate)” value is “low polyreactivity”.
